# T1: GST-Dyn2 F5 (GTPase+middle+PH+GED domains)
# T1 chain: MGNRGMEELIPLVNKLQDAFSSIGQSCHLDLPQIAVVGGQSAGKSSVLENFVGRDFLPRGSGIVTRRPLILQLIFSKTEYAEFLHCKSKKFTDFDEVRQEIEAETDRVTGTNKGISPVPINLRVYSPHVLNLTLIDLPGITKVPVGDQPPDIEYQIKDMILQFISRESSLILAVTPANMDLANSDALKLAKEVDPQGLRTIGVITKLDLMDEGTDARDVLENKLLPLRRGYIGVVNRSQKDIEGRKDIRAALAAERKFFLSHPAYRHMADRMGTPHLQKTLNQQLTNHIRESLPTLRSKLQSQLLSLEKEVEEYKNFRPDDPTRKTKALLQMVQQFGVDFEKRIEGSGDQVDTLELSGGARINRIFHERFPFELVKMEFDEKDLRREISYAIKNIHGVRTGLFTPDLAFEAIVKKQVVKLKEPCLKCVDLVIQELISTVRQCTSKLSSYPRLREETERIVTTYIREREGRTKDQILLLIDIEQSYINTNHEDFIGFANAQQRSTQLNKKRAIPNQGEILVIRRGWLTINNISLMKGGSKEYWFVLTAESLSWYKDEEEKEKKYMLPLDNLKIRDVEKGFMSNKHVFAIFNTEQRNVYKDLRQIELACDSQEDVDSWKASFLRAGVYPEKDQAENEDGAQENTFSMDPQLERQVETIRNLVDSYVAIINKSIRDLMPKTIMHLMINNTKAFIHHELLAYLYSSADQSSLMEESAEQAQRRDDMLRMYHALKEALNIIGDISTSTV
# T2: GST-fused Dyn2 (UniProt P50570 1-870)
# T2 sequence (looked up): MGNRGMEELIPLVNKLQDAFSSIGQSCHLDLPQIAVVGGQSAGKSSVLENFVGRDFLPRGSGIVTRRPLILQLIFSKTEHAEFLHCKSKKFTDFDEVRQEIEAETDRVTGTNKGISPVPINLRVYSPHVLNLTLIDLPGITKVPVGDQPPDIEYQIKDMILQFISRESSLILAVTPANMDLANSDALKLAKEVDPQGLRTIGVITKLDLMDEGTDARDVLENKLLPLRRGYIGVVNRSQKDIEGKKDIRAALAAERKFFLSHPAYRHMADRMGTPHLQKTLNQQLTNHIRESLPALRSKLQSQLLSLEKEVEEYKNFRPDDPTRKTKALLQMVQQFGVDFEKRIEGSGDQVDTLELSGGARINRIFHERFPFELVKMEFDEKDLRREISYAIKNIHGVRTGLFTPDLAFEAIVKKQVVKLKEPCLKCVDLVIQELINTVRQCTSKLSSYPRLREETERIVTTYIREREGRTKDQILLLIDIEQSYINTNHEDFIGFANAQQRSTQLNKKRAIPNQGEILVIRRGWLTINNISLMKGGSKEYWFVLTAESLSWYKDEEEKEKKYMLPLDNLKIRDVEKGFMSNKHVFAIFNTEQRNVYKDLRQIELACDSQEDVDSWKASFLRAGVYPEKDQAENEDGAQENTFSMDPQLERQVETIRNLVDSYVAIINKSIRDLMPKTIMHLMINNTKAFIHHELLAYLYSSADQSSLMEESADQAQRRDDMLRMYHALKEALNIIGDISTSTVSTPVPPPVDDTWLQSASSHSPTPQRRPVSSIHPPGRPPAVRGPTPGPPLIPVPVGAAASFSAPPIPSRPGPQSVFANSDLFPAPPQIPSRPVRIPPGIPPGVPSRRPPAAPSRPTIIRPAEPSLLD
# B1: His-tagged Ndel1 (natural protein, UniProt Q9GZM8 1-345, looked up)
# chain: MDGEDIPDFSSLKEETAYWKELSLKYKQSFQEARDELVEFQEGSRELEAELEAQLVQAEQRNRDLQADNQRLKYEVEALKEKLEHQYAQSYKQVSVLEDDLSQTRAIKEQLHKYVRELEQANDDLERAKRATIVSLEDFEQRLNQAIERNAFLESELDEKESLLVSVQRLKDEARDLRQELAVRERQQEVTRKSAPSSPTLDCEKMDSAVQASLSLPATPVGKGTENTFPSPKAIPNGFGTSPLTPSARISALNIVGDLLRKVGALESKLAACRNFAKDQASRKSYISGNVNCGVLNGNGTKFSRSGHTSFFDKGAVNGFDPAPPPPGLGSSRPSSAPGMLPLSV
# Key:
# [1] = target: T1, GST-Dyn2 F5 (GTPase+middle+PH+GED …); assay: cell-based or functional assay
# GST-fused Dyn2 = target: T2, GST-fused Dyn2; assay: cell-based or functional assay
binder,measurement,setting,value
B1,non-radioactive (ELIPA) GTPase assay of F5 with against without Ndel1,[1],~1.3 fold
same,"radioactive GTPase assay: hydrolysis of GTP into GDP by Dyn2 oligomers (low salt) with against without Ndel1, over 60 minutes",GST-fused Dyn2,~2 fold

# From paper PMC3026782, “The Cytoskeletal Protein Ndel1 Regulates Dynamin 2 GTPase Activity” (PLoS ONE, 2011)
